Key:
[1] = biological target: T1, isocitrate dehydrogenase, P54071
T1 chain: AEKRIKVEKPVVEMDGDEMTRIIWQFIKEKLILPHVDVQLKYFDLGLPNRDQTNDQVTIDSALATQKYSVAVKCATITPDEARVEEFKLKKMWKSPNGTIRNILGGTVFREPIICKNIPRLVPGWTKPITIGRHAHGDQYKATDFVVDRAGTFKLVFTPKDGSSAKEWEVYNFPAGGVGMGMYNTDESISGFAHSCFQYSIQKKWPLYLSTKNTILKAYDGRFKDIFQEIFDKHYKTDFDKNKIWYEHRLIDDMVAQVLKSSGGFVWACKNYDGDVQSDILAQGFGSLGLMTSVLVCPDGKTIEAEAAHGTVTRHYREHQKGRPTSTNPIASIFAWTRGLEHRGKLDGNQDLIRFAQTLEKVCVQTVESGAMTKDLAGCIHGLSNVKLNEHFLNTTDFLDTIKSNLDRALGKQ

[2] = biological target: T2, Hydroxyacyl-CoA Dehydrogenase Trifunctional Multienzyme Complex Subunit Beta (HADHB), Q99JY0
T2 chain: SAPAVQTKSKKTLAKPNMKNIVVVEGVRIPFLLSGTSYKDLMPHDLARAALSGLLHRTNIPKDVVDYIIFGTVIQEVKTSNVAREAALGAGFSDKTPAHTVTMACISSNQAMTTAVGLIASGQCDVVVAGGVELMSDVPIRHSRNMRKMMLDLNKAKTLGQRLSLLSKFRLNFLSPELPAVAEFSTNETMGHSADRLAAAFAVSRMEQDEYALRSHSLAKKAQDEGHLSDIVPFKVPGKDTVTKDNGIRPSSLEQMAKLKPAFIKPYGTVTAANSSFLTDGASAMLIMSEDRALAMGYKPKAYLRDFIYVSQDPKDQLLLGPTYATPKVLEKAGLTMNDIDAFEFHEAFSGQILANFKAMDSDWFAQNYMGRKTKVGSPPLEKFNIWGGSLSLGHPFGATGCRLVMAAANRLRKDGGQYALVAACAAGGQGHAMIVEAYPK

[3] = biological target: glutamate dehydrogenase (GDH), P26443
glutamate dehydrogenase (GDH), P26443, sequence (P26443 54-558): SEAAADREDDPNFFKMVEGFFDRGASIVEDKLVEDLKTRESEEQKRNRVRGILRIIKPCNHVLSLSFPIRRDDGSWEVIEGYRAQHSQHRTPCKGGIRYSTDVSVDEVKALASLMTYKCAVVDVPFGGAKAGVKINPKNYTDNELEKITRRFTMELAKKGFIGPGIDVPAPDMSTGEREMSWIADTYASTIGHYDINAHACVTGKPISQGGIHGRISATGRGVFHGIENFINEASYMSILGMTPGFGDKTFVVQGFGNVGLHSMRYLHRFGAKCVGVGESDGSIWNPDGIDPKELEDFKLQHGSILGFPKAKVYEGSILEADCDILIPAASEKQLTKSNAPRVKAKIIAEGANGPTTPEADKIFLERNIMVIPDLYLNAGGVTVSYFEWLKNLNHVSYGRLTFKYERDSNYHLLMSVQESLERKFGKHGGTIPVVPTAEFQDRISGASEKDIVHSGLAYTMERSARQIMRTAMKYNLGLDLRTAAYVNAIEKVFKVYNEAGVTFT

[4] = biological target: lactate dehydrogenase (LDH), P06151
[5] = biological target: T3, glutaminase (GLS), D3Z7P3
T3 chain: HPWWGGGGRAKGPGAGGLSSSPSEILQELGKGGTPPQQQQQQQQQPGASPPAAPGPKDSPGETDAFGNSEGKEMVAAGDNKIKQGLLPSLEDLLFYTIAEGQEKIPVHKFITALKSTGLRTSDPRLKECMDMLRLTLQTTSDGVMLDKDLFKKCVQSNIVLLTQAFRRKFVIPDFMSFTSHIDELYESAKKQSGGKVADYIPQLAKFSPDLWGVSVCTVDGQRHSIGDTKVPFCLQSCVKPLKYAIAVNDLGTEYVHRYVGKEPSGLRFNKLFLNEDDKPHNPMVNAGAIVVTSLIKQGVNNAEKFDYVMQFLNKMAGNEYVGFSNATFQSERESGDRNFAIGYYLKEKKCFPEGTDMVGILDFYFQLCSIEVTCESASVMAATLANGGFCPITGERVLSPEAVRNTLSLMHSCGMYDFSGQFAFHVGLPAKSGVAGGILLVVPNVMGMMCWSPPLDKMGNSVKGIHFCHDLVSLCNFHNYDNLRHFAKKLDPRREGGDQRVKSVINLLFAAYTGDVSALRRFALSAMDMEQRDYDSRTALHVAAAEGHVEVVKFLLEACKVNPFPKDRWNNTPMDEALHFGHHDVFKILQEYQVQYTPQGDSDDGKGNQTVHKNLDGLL

[6] = biological target: succinate dehydrogenase subunit alpha (SDHA), Q8K2B3
succinate dehydrogenase subunit alpha (SDHA), Q8K2B3, sequence (Q8K2B3 43-664): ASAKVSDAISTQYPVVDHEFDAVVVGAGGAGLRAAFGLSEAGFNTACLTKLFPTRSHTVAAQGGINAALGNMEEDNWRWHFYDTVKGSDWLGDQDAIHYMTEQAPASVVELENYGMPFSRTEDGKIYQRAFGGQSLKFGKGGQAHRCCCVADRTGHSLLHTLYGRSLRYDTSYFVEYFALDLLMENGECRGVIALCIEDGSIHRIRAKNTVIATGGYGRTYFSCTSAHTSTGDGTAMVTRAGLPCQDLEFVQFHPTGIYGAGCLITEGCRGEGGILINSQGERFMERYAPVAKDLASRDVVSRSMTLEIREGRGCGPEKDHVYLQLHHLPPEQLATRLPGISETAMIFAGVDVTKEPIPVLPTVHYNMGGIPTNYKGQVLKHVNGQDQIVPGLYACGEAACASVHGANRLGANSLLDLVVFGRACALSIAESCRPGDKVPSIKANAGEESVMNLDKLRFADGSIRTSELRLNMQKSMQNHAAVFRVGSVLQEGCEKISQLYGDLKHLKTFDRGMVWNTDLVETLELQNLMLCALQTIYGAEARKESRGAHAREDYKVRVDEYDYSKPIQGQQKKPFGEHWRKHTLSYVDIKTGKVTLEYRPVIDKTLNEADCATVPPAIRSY

[7] = biological target: succinate-CoA ligase alpha subunit (SUCLG1), Q9WUM5
succinate-CoA ligase alpha subunit (SUCLG1), Q9WUM5, sequence (Q9WUM5 35-346): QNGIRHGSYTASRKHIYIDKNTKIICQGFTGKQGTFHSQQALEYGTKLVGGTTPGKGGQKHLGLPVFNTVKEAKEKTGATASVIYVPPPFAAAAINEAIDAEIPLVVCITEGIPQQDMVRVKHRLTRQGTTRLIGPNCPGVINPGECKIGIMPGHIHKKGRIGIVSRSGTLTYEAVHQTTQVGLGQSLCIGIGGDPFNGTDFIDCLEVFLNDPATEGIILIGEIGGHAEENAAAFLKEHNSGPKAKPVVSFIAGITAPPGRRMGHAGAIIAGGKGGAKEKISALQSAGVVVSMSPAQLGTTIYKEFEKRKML

enolase 1 (ENO1), P17182 = biological target: T4, enolase 1 (ENO1), P17182
T4 chain: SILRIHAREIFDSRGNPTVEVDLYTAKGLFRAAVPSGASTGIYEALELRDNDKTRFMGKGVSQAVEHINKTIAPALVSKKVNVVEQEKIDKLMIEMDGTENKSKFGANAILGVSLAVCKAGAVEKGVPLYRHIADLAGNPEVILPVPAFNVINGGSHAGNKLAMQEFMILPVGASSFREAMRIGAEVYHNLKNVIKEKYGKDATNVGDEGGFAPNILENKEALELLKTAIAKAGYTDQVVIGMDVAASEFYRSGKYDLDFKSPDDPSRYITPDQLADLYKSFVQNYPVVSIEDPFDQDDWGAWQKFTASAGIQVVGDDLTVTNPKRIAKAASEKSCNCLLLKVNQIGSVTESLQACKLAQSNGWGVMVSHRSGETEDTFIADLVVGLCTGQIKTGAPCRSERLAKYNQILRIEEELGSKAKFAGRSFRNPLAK

[8] = biological target: T5, aldolase A (ALDOA), P05064
T5 chain: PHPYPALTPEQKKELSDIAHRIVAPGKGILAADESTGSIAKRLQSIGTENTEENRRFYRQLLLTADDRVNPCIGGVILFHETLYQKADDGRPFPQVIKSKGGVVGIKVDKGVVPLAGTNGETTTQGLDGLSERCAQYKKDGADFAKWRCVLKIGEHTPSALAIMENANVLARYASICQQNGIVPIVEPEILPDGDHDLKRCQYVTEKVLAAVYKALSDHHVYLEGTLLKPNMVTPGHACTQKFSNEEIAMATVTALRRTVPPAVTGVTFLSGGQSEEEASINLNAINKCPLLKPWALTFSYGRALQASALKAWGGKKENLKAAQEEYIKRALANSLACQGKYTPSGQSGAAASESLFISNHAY

[9] = biological target: T6, phosphoglycerate kinase 1 (PGK1), P09411
T6 chain: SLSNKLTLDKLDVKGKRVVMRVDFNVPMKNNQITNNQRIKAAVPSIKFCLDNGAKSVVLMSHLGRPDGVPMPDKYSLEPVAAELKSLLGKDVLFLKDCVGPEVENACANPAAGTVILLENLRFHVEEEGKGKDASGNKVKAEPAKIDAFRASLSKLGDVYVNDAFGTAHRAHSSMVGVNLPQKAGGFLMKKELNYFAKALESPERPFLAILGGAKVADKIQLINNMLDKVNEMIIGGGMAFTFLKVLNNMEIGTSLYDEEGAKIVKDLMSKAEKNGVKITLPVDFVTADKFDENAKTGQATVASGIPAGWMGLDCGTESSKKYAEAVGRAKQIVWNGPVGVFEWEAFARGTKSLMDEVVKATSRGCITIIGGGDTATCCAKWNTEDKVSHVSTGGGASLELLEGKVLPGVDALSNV

[10] = biological target: pyruvate kinase M (PKM), P52480
pyruvate kinase M (PKM), P52480, sequence (P52480 whole entry): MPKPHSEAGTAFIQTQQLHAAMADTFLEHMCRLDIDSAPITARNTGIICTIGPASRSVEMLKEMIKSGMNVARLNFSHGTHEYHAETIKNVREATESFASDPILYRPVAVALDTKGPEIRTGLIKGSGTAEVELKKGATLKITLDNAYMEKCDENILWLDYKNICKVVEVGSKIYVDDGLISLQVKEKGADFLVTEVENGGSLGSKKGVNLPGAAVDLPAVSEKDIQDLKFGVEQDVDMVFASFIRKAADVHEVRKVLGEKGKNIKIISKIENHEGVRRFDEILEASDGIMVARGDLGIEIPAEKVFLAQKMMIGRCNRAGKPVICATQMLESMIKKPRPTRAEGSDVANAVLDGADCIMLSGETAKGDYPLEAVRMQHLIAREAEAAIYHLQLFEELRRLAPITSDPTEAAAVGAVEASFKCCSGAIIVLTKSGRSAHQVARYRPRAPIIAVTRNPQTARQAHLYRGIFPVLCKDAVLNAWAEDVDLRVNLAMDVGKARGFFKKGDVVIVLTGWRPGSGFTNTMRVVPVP

[11] = biological target: T7, malate dehydrogenase, P08249
T7 chain: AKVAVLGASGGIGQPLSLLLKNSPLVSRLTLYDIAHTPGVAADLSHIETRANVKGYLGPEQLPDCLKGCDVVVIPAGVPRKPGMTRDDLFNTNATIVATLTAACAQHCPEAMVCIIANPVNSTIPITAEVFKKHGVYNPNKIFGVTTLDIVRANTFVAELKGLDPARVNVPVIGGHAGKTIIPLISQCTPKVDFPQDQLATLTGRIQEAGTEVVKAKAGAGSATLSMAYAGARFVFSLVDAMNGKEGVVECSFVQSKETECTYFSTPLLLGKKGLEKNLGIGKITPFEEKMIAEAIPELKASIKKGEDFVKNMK

[12] = biological target: T8, aconitase 2 (ACO2), Q99KI0
T8 chain: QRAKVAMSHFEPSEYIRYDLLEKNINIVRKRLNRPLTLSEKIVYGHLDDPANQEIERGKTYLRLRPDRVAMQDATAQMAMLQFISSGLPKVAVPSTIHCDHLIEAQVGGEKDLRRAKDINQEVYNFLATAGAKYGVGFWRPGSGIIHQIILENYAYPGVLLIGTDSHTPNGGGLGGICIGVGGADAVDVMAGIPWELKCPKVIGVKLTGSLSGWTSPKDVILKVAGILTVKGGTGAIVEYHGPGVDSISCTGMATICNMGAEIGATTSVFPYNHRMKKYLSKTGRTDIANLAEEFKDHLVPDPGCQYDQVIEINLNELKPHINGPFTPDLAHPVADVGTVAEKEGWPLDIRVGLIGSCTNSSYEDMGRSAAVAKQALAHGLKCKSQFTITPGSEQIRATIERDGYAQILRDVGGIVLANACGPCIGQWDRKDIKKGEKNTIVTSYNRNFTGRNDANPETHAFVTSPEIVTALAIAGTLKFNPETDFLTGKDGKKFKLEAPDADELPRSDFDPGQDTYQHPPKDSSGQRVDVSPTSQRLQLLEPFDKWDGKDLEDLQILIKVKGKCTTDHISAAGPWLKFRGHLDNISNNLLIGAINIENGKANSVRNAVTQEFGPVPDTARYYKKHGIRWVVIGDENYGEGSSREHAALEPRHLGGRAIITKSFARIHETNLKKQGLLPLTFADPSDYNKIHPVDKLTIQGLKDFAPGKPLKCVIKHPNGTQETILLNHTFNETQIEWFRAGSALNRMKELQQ

[13] = biological target: glyceraldehyde-3-phosphate dehydrogenase (GAPDH), P16858
glyceraldehyde-3-phosphate dehydrogenase (GAPDH), P16858, sequence (P16858 whole entry): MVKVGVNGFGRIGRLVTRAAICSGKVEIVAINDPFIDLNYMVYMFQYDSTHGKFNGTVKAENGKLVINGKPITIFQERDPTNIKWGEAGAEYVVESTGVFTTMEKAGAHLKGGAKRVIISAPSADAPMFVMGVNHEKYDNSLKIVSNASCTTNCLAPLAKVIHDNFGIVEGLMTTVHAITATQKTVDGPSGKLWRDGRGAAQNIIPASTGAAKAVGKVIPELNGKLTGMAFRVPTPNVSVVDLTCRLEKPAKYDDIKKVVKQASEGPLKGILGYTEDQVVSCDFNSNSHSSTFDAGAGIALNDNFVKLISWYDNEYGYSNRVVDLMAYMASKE

B1: Sirt2 (protein)
chain: AEPDPSDPLETQAGKVQEAQDSDSDTEGGATGGEAEMDFLRNLFTQTLGLGSQKERLLDELTLEGVTRYMQSERCRKVICLVGAGISTSAGIPDFRSPSTGLYANLEKYHLPYPEAIFEISYFKKHPEPFFALAKELYPGQFKPTICHYFIRLLKEKGLLLRCYTQNIDTLERVAGLEPQDLVEAHGTFYTSHCVNTSCRKEYTMGWMKEKIFSEATPRCEQCQSVVKPDIVFFGENLPSRFFSCMQSDFSKVDLLIIMGTSLQVQPFASLISKAPLATPRLLINKEKTGQTDPFLGMMMGLGGGMDFDSKKAYRDVAWLGDCDQGCLALADLLGWKKELEDLVRREHANIDAQSGSQAPNPSTTISPGKSPPPAKEAARTKEKEEQQ
acetylated peptide intensity (acetyl-lysine IP, LC-MS/MS, EIC) [1]: peptide NILGGTVFREPIICKNIPR (SEQ ID NO:8) from isocitrate dehydrogenase ... acetylation site K155 ... increased acetylation intensity in Sirt2^-/- sample versus WT | acetylated peptide intensity (acetyl-lysine IP, LC-MS/MS, EIC) [2]: peptide GQQQVFKGLNDK (SEQ ID NO:12) from HADHB ... acetylation site K406 ... increased acetylation intensity in Sirt2^-/- sample versus WT | acetylated peptide intensity (acetyl-lysine IP, LC-MS/MS, EIC) [3]: peptide LTFKYER (SEQ ID NO:14) from GDH ... acetylation site K457 ... increased acetylation intensity in Sirt2^-/- sample versus WT | acetylated peptide intensity (acetyl-lysine IP, LC-MS/MS, EIC) [4]: peptide FIIPNIVKYSPHCK (SEQ ID NO:3) from lactate dehydrogenase ... acetylation site K126 ... increased acetylation intensity in Sirt2^-/- sample versus WT | acetylated peptide intensity (acetyl-lysine IP, LC-MS/MS, EIC) [5]: peptide FITALKSTG (SEQ ID NO:13) from GLS ... acetylation site K169 ... increased acetylation intensity in Sirt2^-/- sample versus WT | acetylated peptide intensity (acetyl-lysine IP, LC-MS/MS, EIC) [6]: peptide ISQLYGDLKHLK (SEQ ID NO:10) from Succinate Dehydrogenase Subunit Alpha ... acetylation site K544 ... increased acetylation intensity in Sirt2^-/- sample versus WT | acetylated peptide intensity (acetyl-lysine IP, LC-MS/MS, EIC) [7]: peptide SSDEAYAIAKK (SEQ ID NO:9) from Succinyl-CoA Ligase ... acetylation site K125 ... increased acetylation intensity in Sirt2^-/- sample versus WT | acetylated peptide intensity (acetyl-lysine IP, LC-MS/MS, EIC) (enolase 1 (ENO1), P17182): peptide SCNCLLLKVNQIGSVTESLQACK (SEQ ID NO:2) from enolase 1 ... acetylation site K343 ... increased acetylation intensity in Sirt2^-/- sample versus WT | acetylated peptide intensity (acetyl-lysine IP, LC-MS/MS, EIC) [8]: peptide GILAADESTGSIAKR (SEQ ID NO:1) from aldolase A ... acetylation site K42 ... increased acetylation intensity in Sirt2^-/- sample versus WT | acetylated peptide intensity (acetyl-lysine IP, LC-MS/MS, EIC) [9]: peptide SVVLMSHLGRPDGVPMPDKYSLEPVAAELK (SEQ ID NO:4) from phosphoglycerate kinase 1 ... acetylation site K75 ... increased acetylation intensity in Sirt2^-/- sample versus WT | acetylated peptide intensity (acetyl-lysine IP, LC-MS/MS, EIC) [10]: peptide CCSGAIIVLTKSGR (SEQ ID NO:6) from pyruvate kinase M ... acetylation site K433 ... increased acetylation intensity in Sirt2^-/- sample versus WT | acetylated peptide intensity (acetyl-lysine IP, LC-MS/MS, EIC) [11]: peptide ETECTYFSTPLLLGKK (SEQ ID NO:11) from malate dehydrogenase ... acetylation site K296 ... increased acetylation intensity in Sirt2^-/- sample versus WT | acetylated peptide intensity (acetyl-lysine IP, LC-MS/MS, EIC) [12]: peptide NFTGRNDANPETHAFVTSPEIVTALAIAGTLKFNPETDFLTGKDGK (SEQ ID NO:7) from aconitase 2 ... acetylation site K506 ... increased acetylation intensity in Sirt2^-/- sample versus WT | acetylated peptide intensity (acetyl-lysine IP, LC-MS/MS, EIC) [13]: peptide WGEAGAEYVVESTGVFTTMEKAGAHLK (SEQ ID NO:5) from glyceraldehyde-3-phosphate dehydrogenase ... acetylation site K105 ... increased acetylation intensity in Sirt2^-/- sample versus WT
